{
  "source": "the RNAGym collection of RNA variant scans (doi:10.7554/elife.90254)",
  "parents": {"B1": {"name": "OR4K15 (parent)", "chain": "GUUAACGGUCAUAGGCCAUGGAAACUAGGAGCACCAUUUCGCUGCCAGUGAAGAAAUGAACAAAGAAAAUCUGGGCCAGGCAGGCAUCAAAAGAAAUAGUCUUGCGCUCAACCAGAAAGUCUGUAAUCAUUUUAAGGGUA"}},
  "data": [
    {"variants_of": "B1", "assay": "self-cleavage, relative activity (ratio to wild type); higher = more cleavage; in vitro, sequencing; the parent is a self-cleaving ribozyme", "values": [
      {"variant": "GUUAACGGUCAUAGGCCAUGGAAACUAGGAGCACCAUUUCGCUGCCAGUGAAGAAAUGAACGAAGAAAAUCUGGGCCGGGCAGGCAUCAAAAGAAAUAGUCUUGCGCUCAACCAGAAAGUCUGUAAUCAUUUUAAGGGUA", "self-cleavage": 0.27},
      {"variant": "GUUAACGGUCAUAGGCCAUGGAAACUAGGAGCACCAUUUCGCUGCCAGUGAAGAAAUGAACGAAGAAAAUCUGGGCCAGGCAGGCAUCAAAAGAAAUAGUCUUGCGCUCGACCAGAAAGUCUGUAAUCAUUUUAAGGGUA", "self-cleavage": 0.16},
      {"variant": "GUUAACGGUCAUAGGCCAUGGAAACUAGGAGCACCAUUUCGCUGCCAGUGAAGAAAUGAACGAAGAAAAUCUGGGCCAGGCAGGCAUCAAAAGAAAUAGUCUUGCGCUCUACCAGAAAGUCUGUAAUCAUUUUAAGGGUA", "self-cleavage": 2.32},
      {"variant": "GUUAACGGUCAUAGGCCAUGGAAACUAGGAGCACCAUUUCGCUGCCAGUGAAGAAAUGAACGAAGAAAAUCUGGGCCAGGCAGGCAUCAAAAGAAAUAGUCUUGCGCUCAACCAGAAAGUCUGUAAUUAUUUUAAGGGUA", "self-cleavage": 1.13},
      {"variant": "GUUAACGGUCAUAGGCCAUGGAAACUAGGAGCACCAUUUCGCUGCCAGUGAAGAAAUGAACGAAGAAAAUCUGAGCCAGGCAGGCAUCAAAAGAAAUAGUCUUGCGCUCAACCAGAAAGUCUGUAAUCAUUUUAAGGGUA", "self-cleavage": 0.24},
      {"variant": "GUUAACGGUCAUAGGCCAUGGAAACUAGGAGCACCAUUUCGCUGCCAGUGAAGAAAUGAACGUAGAAAAUCUGGGCCAGGCAGGCAUCAAAAGAAAUAGUCUUGCGCUCAACCAGAAAGUCUGUAAUCAUUUUAAGGGUA", "self-cleavage": 1.61},
      {"variant": "GUUAACGGUCAUAGGCCAUGGAAACUAGGAGCACCAUUUCGCUGCCAGUGAAGAAAUGAACGAAGAAAUUCUGGGCCAGGCAGGCAUCAAAAGAAAUAGUCUUGCGCUCAACCAGAAAGUCUGUAAUCAUUUUAAGGGUA", "self-cleavage": 1.87},
      {"variant": "GUUAACGGUCAUAGGCCAUGGAAACUAGGAGCACCAUUUCGCUGCCAGUGAAGAAAUGAACGAAGAAAGUCUGGGCCAGGCAGGCAUCAAAAGAAAUAGUCUUGCGCUCAACCAGAAAGUCUGUAAUCAUUUUAAGGGUA", "self-cleavage": 0.68},
      {"variant": "GUUAACGGUCAUAGGCCAUGGAAACUAGGAGCACCAUUUCGCUGCCAGUGAAGAAAUGAACGAAGAAAAUCUGGGCCAGGCAGGUAUCAAAAGAAAUAGUCUUGCGCUCAACCAGAAAGUCUGUAAUCAUUUUAAGGGUA", "self-cleavage": 0.63},
      {"variant": "GUUAACGGUCAUAGGCCAUGGAAACUAGGAGCACCAUUUCGCUGCCAGUGAAGAAAUGAACCAAGAAAAUCUGGGCCAGGCAGGCAUCAAAAGAAAAAGUCUUGCGCUCAACCAGAAAGUCUGUAAUCAUUUUAAGGGUA", "self-cleavage": 1.86},
      {"variant": "GUUAACGGUCAUAGGCCAUGGAAACUAGGAGCACCAUUUCGCUGCCAGUGAAGAAAUGAACGAAGAAAAUCUGGGCCAGGCAGGCAUCAAAAGAAAUAGUCUUGCGCUCAACCAGAAUGUCUGUAAUCAUUUUAAGGGUA", "self-cleavage": 0.73},
      {"variant": "GUUAACGGUCAUAGGCCAUGGAAACUAGGAGCACCAUUUCGCUGCCAGUGAAGAAAUGAACGAAGAAAAUCUGGGCCAGGCAGGCAUCAAAAGAAAUAGUCUUGCGCUCAACCAGAAGGUCUGUAAUCAUUUUAAGGGUA", "self-cleavage": 1.01},
      {"variant": "GUUAACGGUCAUAGGCCAUGGAAACUAGGAGCACCAUUUCGCUGCCAGUGAAGAAAUGAACGAAGAAAAUCUGGGCCAGGCAGGCAUCAAAAGAAAUAGUCUUGCGCUCAACCAGAAAGUCUGUAAUCAUUUUAAGGGUA", "self-cleavage": 1.23},
      {"variant": "GUUAACGGUCAUAGGCCAUGGAAACUAGGAGCACCAUUUCGCUGCCAGUGAAGAAAUGAACGAAGAAAAUCUGGGCCAGGCAGGCAUCAAAAGAAAUAGUCUUGCGCUCAACCGGAAAGUCUGUAAUCAUUUUAAGGGUA", "self-cleavage": 0.44},
      {"variant": "GUUAACGGUCAUAGGCCAUGGAAACUAGGAGCACCAUUUCGCUGCCAGUGAAGAAAUGAACGAAGAAAAUCUGGGCCAGGCAGGCAUCAAAAGAAAUAGUCUUGCGCUCAACCAGAAAGUCUGUAAUCAUUUUGAGGGUA", "self-cleavage": 1.72},
      {"variant": "GUUAACGGUCAUAGGCCAUGGAAACUAGGAGCACCAUUUCGCUGCCAGUGAAGAAAUGAACGAAGAAAAUCUGGGCCAGGCAGGCAUCAAUAGAAAUAGUCUUGCGCUCAACCAGAAAGUCUGUAAUCAUUUUAAGGGUA", "self-cleavage": 1.61},
      {"variant": "GUUAACGGUCAUAGGCCAUGGAAACUAGGAGCACCAUUUCGCUGCCAGUGAAGAAAUGAACGAGGAAAAUCUGGGCCAGGCAGGCAUCAAAAGAAAUAGUCUUGCGCUCAACCAGAAAGUCUGUAAUCAUUUUAAGGGUA", "self-cleavage": 0.94},
      {"variant": "GUUAACGGUCAUAGGCCAUGGAAACUAGGAGCACCAUUUCGCUGCCAGUGAAGAAAUGAACGAAGAAAAUCUGGGCCAGGCAGGCAUCAAAAGAGAUAGUCUUGCGCUCAACCAGAAAGUCUGUAAUCAUUUUAAGGGUA", "self-cleavage": 2.2},
      {"variant": "GUUAACGGUCAUAGGCCAUGGAAACUAGGAGCACCAUUUCGCUGCCAGUGAAGAAAUGAACGAAGAAAAUCUGGGCCAGGCAGGCAUCAAAAGGAAUAGUCUUGCGCUCAACCAGAAAGUCUGUAAUCAUUUUAAGGGUA", "self-cleavage": 1.52},
      {"variant": "GUUAACGGUCAUAGGCCAUGGAAACUAGGAGCACCAUUUCGCUGCCAGUGAAGAAAUGAACGAAGAAAAUCUGGGCCAGGCAGGCAUCAAAAGAAAUAGUCUUGCGCUCAACCAGAAAGUCUGUAAUCAUUUUAAGGGUG", "self-cleavage": 1.36},
      {"variant": "GUUAACGGUCAUAGGCCAUGGAAACUAGGAGCACCAUUUCGCUGCCAGUGAAGAAAUGAACGAAGAAAAUCUGGGCCAGGCAGGCAUCAAAAGAAAUAGUCUUGCGCUCAACCAGUAAGUCUGUAAUCAUUUUAAGGGUA", "self-cleavage": 0.35},
      {"variant": "GUUAACGGUCAUAGGCCAUGGAAACUAGGAGCACCAUUUCGCUGCCAGUGAAGAAAUGAACGAAGAAAAUCUGGGCCAGGCAGGCUUCAAAAGAAAUAGUCUUGCGCUCAACCAGAAAGUCUGUAAUCAUUUUAAGGGUA", "self-cleavage": 2.08},
      {"variant": "GUUAACGGUCAUAGGCCAUGGAAACUAGGAGCACCAUUUCGCUGCCAGUGAAGAAAUGAACGAAGAAAAUCUGGGCCAGGCAGGCAUCAAAAGAAAUAGUCUUGCGCUCAACCAGAAAGUCUGUAUUCAUUUUAAGGGUA", "self-cleavage": 1.6},
      {"variant": "GUUAACGGUCAUAGGCCAUGGAAACUAGGAGCACCAUUUCGCUGCCAGUGAAGAAAUGAACGAAGAAAAUCUGGGCCAGGCAGGCAUCAAAAGAAAUAGUCUUGCGCUCAACCAGAAAGUCUGUACUCAUUUUAAGGGUA", "self-cleavage": 0.62},
      {"variant": "GUUAACGGUCAUAGGCCAUGGAAACUAGGAGCACCAUUUCGCUGCCAGUGAAGAAAUGAACGAAGAAAAUCUGGGCCAGGCAGGCAUCAAAAGAAAUAGUCUUGCGCUCAACCAGAAAGUCUGUAGUCAUUUUAAGGGUA", "self-cleavage": 2.05},
      {"variant": "GUUAACGGUCAUAGGCCAUGGAAACUAGGAGCACCAUUUCGCUGCCAGUGAAGAAAUGAACGAAGAAAAUCUGGGCCAGGCAGGCAUCAAAAGAAAUAGUCUUGUGCUCAACCAGAAAGUCUGUAAUCAUUUUAAGGGUA", "self-cleavage": 0.14},
      {"variant": "GUUAACGGUCAUAGGCCAUGGAAACUAGGAGCACCAUUUCGCUGCCAGUGAAGAAAUGAACGAAGAAAAUCUGGGCCAGGCAGGCAUCAAAAGAAAUAGUCUUGCGCUCAACCAGAGAGUCUGUAAUCAUUUUAAGGGUA", "self-cleavage": 1.43},
      {"variant": "GUUAACGGUCAUAGGCCAUGGAAACUAGGAGCACCAUUUCGCUGCCAGUGAAGAAAUGAACGAAGAAAAUCUGGGCCAGGCAGGCAUCAAAAGAAAUAGUCUUGCGCUCAAGCAGAAAGUCUGUAAUCAUUUUAAGGGUA", "self-cleavage": 0},
      {"variant": "GUUAACGGUCAUAGGCCAUGGAAACUAGGAGCACCAUUUCGCUGCCAGUGAAGAAAUGAACCAAGAAAAUCUGGGCCAGGCAGGCAUCAAAAGAAAUAGUCUUGCGCUCAACCAGAAAGUCUGUAAUCACUUUAAGGGUA", "self-cleavage": 0.71},
      {"variant": "GUUAACGGUCAUAGGCCAUGGAAACUAGGAGCACCAUUUCGCUGCCAGUGAAGAAAUGAACGAAGAAAAUCUGGGCCAGGCAGGCAUCAAAAGAAAUAGUCUUGCGCUCAACCAGAAAGUCUGUAAUCGUUUUAAGGGUA", "self-cleavage": 1.09},
      {"variant": "GUUAACGGUCAUAGGCCAUGGAAACUAGGAGCACCAUUUCGCUGCCAGUGAAGAAAUGAACGAAGAAAAUCUGGGCCAGGCAGGCAUCAAAAGAAAUAGUCUUGCGCUCAACCAGAAAGUCUGUAAUCUUUUUAAGGGUA", "self-cleavage": 0.89},
      {"variant": "GUUAACGGUCAUAGGCCAUGGAAACUAGGAGCACCAUUUCGCUGCCAGUGAAGAAAUGAACGAAGAAAAUCUGGGCCAGGCAAGCAUCAAAAGAAAUAGUCUUGCGCUCAACCAGAAAGUCUGUAAUCAUUUUAAGGGUA", "self-cleavage": 0.99},
      {"variant": "GUUAACGGUCAUAGGCCAUGGAAACUAGGAGCACCAUUUCGCUGCCAGUGAAGAAAUGAACGAAGAAAAUCUGGGCCAGGCAGGCAUCAAAAGAAGUAGUCUUGCGCUCAACCAGAAAGUCUGUAAUCAUUUUAAGGGUA", "self-cleavage": 1.53},
      {"variant": "GUUAACGGUCAUAGGCCAUGGAAACUAGGAGCACCAUUUCGCUGCCAGUGAAGAAAUGAACGAAGAAAAUCUGGGCCAGGCAGGCAUCAAAUGAAAUAGUCUUGCGCUCAACCAGAAAGUCUGUAAUCAUUUUAAGGGUA", "self-cleavage": 1.01},
      {"variant": "GUUAACGGUCAUAGGCCAUGGAAACUAGGAGCACCAUUUCGCUGCCAGUGAAGAAAUGAACGAAGUAAAUCUGGGCCAGGCAGGCAUCAAAAGAAAUAGUCUUGCGCUCAACCAGAAAGUCUGUAAUCAUUUUAAGGGUA", "self-cleavage": 1.78},
      {"variant": "GUUAACGGUCAUAGGCCAUGGAAACUAGGAGCACCAUUUCGCUGCCAGUGAAGAAAUGAACGAAGGAAAUCUGGGCCAGGCAGGCAUCAAAAGAAAUAGUCUUGCGCUCAACCAGAAAGUCUGUAAUCAUUUUAAGGGUA", "self-cleavage": 1.48},
      {"variant": "GUUAACGGUCAUAGGCCAUGGAAACUAGGAGCACCAUUUCGCUGCCAGUGAAGAAAUGAACCAAGAAAAUCUGGGCCAGGCAGGCACCAAAAGAAAUAGUCUUGCGCUCAACCAGAAAGUCUGUAAUCAUUUUAAGGGUA", "self-cleavage": 1.51},
      {"variant": "GUUAACGGUCAUAGGCCAUGGAAACUAGGAGCACCAUUUCGCUGCCAGUGAAGAAAUGAACGAAGAAAAUCUGGGCCAGGCAGGCAUCAUAAGAAAUAGUCUUGCGCUCAACCAGAAAGUCUGUAAUCAUUUUAAGGGUA", "self-cleavage": 0.76},
      {"variant": "GUUAACGGUCAUAGGCCAUGGAAACUAGGAGCACCAUUUCGCUGCCAGUGAAGAAAUGAACGAAGAAAAUCUGGGCCAGGCAGGCAUCAGAAGAAAUAGUCUUGCGCUCAACCAGAAAGUCUGUAAUCAUUUUAAGGGUA", "self-cleavage": 0.54},
      {"variant": "GUUAACGGUCAUAGGCCAUGGAAACUAGGAGCACCAUUUCGCUGCCAGUGAAGAAAUGAACGAAGAAAAUCUGGGCCAGGCAGGCAUCAAAAGAAAUAGUCUUGCGCUCAACCAGAAAGUCUGUAAUCAUUUUAGGGGUA", "self-cleavage": 2.19},
      {"variant": "GUUAACGGUCAUAGGCCAUGGAAACUAGGAGCACCAUUUCGCUGCCAGUGAAGAAAUGAACGAAGAAGAUCUGGGCCAGGCAGGCAUCAAAAGAAAUAGUCUUGCGCUCAACCAGAAAGUCUGUAAUCAUUUUAAGGGUA", "self-cleavage": 1.12}
    ]}
  ]
}
